{"source": "patent US20250122298A1", "about": "(OSSIANIX, published 2025)", "key": {"[1]": {"biological_target": "T1, recombinant cynomolgus TfR-1 (cynomolgus, UniProt H9EXL1 89-760 (rhesus entry))", "T1 construct": "also called cTfR-1; cTfR1", "T1 sequence (chain, as listed by the source)": "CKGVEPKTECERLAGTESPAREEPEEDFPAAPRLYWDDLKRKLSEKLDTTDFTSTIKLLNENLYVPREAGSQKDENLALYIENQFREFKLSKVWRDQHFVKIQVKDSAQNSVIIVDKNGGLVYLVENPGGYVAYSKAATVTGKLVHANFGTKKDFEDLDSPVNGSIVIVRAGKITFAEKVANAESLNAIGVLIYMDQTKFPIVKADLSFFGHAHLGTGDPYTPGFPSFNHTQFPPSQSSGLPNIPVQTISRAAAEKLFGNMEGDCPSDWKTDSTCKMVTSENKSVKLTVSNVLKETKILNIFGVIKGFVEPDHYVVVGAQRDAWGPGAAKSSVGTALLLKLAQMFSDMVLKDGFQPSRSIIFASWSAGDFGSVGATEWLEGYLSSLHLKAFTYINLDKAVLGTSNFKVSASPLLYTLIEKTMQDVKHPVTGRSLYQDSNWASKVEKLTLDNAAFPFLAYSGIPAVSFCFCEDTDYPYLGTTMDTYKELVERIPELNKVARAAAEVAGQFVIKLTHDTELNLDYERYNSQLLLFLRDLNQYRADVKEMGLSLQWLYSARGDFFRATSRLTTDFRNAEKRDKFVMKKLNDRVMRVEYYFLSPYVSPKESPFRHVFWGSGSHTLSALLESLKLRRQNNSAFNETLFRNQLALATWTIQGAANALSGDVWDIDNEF", "assay": "ELISA, plate-coated recombinant cTfR1, anti-hFc HRP detection", "procedure": "(§1) TfR1 ELISA. Nunc MaxiSorp plates were coated with 100 ul of 1 μg/ml of in-house purified recombinant human, cynomolgus TfR1 or HSA and incubated at 4° C. overnight. Plates were incubated with blocking buffer (2.5% non-fat dry milk in PBST) for 1 hr at RT. Serial dilutions of TXP1, TXPID1 or TXP1D4 were mixed with non-fat dry milk in PBST to a final concentration of 2.5% and incubated for 30 min. Blocked VNAR antibody solutions (100 μl) were transferred to the blocked plates and incubated for 1 hr. Plates were washed with PBST and incubated with anti-hFc HRP-conjugated antibody diluted 1:5,000 (Sigma) in blocking buffer for 30 min. Plates were washed and developed with SureBlue TMB substrate. Were indicated the velocity of colorimetric reaction development was measured in the kinetic mode at 370 nm and the maximum peak was used for quantitation (Vmax at 370 nm). Alternatively, the TMB reaction was stopped with 1% HCl and absorbance was measured at 450 nm (OD at 450 nm)."}, "[2]": {"biological_target": "T2, recombinant human TfR-1 (human, UniProt P02786 89-760, limits assumed)", "T2 construct": "also called hTfR-1; hTfR1", "T2 sequence (P02786 89-760 limits assumed)": "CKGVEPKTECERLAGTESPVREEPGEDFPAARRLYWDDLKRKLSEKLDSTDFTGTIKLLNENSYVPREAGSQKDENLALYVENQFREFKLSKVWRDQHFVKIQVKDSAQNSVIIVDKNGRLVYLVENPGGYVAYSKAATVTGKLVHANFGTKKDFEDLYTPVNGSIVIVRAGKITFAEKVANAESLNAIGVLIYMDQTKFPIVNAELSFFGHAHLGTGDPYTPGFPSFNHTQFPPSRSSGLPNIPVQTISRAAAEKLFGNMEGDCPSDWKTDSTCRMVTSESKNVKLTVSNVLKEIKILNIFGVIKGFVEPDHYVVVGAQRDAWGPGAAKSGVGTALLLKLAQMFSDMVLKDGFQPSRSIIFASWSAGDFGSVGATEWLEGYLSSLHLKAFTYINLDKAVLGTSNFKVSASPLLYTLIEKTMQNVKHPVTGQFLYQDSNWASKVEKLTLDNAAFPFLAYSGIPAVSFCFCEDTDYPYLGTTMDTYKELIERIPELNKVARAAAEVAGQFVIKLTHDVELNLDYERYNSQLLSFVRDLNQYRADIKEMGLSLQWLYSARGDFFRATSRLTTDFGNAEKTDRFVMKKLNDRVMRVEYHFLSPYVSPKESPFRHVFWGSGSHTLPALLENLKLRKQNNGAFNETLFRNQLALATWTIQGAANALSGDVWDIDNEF", "assay": "SPR Biacore T200, His-tagged TfR1 captured by anti-His, multi-cycle kinetics, 1:1 model", "procedure": "Binding kinetics. Binding kinetics of TXP1, TXP1D1 and TXP1D4 were determined by surface plasmon resonance (SPR) using a Biacore T200 (GE Healthcare). A His-capture kit (GE Healthcare) was used to immobilize anti-His antibodies on CM5 chips (as recommended by the manufacturer). His-tagged recombinant hTfR1 in 0.1% BSA in HBS-EP+ buffer (GE Healthcare) was captured at flow rate 10 μl/min. Analyte binding was measured using the multi-cycle kinetic SPR method. Starting analyte concentrations at 400 nM and serially diluted in 1:4 in seven steps. Association and dissociation were measured for 360s and 1500s respectively, with flow rate at 30 μl/min. The chips were regenerated in 10 mM Glycine-HCl, pH 1.5. Sensorgrams were fitted using 1:1 binding model and kinetic constants determined using Biacore T200 Evaluation software (Cytiva)."}, "[3]": {"biological_target": "T1, recombinant cynomolgus TfR-1", "assay": "SPR Biacore T200, multi-cycle kinetics, 1:1 model"}, "[4]": {"biological_target": "T3, cell surface human TfR1 on hCMEC/D3 and SH-SY5Y cells (human, UniProt P02786 1-760)", "T3 construct": "whole, on cells; Endogenous receptor on the cell lines; also called cell surface TfR1; cell-surface hTfR1", "T3 sequence (P02786 whole entry)": "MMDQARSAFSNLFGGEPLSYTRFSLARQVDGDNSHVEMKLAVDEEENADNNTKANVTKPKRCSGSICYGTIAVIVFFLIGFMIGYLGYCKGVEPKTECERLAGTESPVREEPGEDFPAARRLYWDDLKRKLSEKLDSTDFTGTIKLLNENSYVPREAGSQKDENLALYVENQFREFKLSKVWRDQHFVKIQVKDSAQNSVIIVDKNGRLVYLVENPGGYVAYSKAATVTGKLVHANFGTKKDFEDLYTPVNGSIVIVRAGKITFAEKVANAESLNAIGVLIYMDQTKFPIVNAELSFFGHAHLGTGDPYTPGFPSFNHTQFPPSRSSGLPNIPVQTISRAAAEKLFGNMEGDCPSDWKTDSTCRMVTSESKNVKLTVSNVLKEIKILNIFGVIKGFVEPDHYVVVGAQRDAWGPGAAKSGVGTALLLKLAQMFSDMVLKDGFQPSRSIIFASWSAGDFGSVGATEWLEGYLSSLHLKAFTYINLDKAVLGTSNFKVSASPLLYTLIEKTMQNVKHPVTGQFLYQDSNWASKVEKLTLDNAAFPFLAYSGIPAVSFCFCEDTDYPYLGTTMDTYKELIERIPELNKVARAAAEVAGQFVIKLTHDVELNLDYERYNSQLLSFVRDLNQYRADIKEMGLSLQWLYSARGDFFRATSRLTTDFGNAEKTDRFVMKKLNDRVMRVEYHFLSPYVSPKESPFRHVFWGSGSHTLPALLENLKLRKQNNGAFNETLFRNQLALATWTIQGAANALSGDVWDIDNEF", "assay": "flow cytometry on hCMEC/D3 cells on ice, binding to cell surface TfR1, anti-hFc Alexa647", "procedure": "Functional activity of the fully deimmunized variants was assessed using the hCMEC/D3 human endothelial cell line and the SY-SH5Y human neuronal cell line. Binding to hCMEC/D3 cells was assessed by incubation with serial antibody dilutions for 1h on ice to avoid internalization. The cells were fixed and binding to cell surface TfR1 was measured by flow cytometry. […] Internalization via cell-surface hTfR1 was assessed using the hCMEC/D3 and SY-SH5Y cell lines by incubation with the antibodies for 1 hour at 37° C.\nFlow cytometry. hCMEC/D3 cells were seeded onto V-bottom 96-well plates at a density of 1×10⁴ cells/well. All incubations were carried out on ice to prevent internalization. After blocking in PBS containing 10% BSA (FACS buffer), cells were incubated with serial dilutions of TXP1. Cells were stained with propidium iodine (PI; Biolegend) for 20 min, followed by anti-hFc conjugated to Alexa647 diluted 1:300 (Jackson ImmunoResearch) for 30 min. After fixation in 4% PFA for 15 min, the cells were analyzed on a CytoFlex flow cytometer (Beckman Coulter). Gating of cells stained with secondary antibody alone was used to set the negative threshold for and the fluorescence intensity of approximately 1000 cells per condition was measured. EC50 values were calculated using a four parametric non-linear regression model."}, "[5]": {"biological_target": "T4, HSA (human, UniProt P02768 25-609)", "T4 construct": "also called human serum albumin (negative control)", "T4 sequence (P02768 25-609 limits assumed)": "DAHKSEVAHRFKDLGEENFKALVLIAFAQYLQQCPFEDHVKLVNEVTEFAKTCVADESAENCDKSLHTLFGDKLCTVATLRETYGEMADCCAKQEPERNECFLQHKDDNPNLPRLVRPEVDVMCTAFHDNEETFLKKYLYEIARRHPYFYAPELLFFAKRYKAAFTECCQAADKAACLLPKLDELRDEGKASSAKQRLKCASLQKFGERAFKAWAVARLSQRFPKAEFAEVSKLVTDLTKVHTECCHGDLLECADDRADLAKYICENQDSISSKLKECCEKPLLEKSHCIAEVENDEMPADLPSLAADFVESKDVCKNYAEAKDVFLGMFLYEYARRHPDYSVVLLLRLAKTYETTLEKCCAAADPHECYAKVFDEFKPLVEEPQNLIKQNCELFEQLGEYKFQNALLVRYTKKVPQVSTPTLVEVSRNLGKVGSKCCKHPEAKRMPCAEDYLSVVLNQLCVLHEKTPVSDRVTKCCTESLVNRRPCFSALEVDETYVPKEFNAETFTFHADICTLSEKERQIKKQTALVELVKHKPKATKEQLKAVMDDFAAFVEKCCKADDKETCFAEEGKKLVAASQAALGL", "assay": "ELISA, plate-coated HSA as negative control, anti-hFc HRP detection"}, "[6]": {"biological_target": "T2, recombinant human TfR-1", "assay": "ELISA, plate-coated recombinant hTfR1, anti-hFc HRP detection", "procedure": "as §1"}, "[7]": {"biological_target": "T1, recombinant cynomolgus TfR-1", "assay": "SPR Biacore T200, His-tagged TfR-1 captured by anti-His, single cycle kinetics, 1:1 model", "procedure": "(§2) Binding kinetics. Binding kinetics of TXP1 and A06 VNAR antibodies were determined by surface plasmon resonance (SPR) using a Biacore T200 (GE Healthcare). A His-capture kit (GE Healthcare) was used to immobilize anti-His antibodies on CM5 chips (as recommended by the manufacturer). His-tagged recombinant cynomolgus and human TfR-1 in 0.1% BSA in HBS-EP+ buffer (GE Healthcare) was captured at flow rate 10 μl/min. Analyte binding was measured using the single cycle kinetic SPR method on a Biacore T200. Analytes were injected at increasing concentrations (0.98, 3.9, 15.6, 62.5 and 250 nM) in HBS-EP+ at flow rate 30 μl/min. A flow cell without TfR-1 captured served as a reference. The chips were regenerated in 10 mM glycine-HCl, pH 1.5. Sensorgrams were fitted using 1:1 binding model and kinetic constants determined using Biacore T200 Evaluation software (GE Healthcare). Association and dissociation were measured for 360s and 1500s respectively, with flow rate at […]."}, "[8]": {"biological_target": "T2, recombinant human TfR-1", "assay": "SPR Biacore T200, His-tagged TfR-1 captured by anti-His, single cycle kinetics, 1:1 model", "procedure": "as §2"}, "[9]": {"biological_target": "T5, recombinant rat TfR-1 (rat, UniProt Q99376 87-761, limits assumed)", "T5 construct": "also called rTfR-1", "T5 sequence (Q99376 87-761 limits assumed)": "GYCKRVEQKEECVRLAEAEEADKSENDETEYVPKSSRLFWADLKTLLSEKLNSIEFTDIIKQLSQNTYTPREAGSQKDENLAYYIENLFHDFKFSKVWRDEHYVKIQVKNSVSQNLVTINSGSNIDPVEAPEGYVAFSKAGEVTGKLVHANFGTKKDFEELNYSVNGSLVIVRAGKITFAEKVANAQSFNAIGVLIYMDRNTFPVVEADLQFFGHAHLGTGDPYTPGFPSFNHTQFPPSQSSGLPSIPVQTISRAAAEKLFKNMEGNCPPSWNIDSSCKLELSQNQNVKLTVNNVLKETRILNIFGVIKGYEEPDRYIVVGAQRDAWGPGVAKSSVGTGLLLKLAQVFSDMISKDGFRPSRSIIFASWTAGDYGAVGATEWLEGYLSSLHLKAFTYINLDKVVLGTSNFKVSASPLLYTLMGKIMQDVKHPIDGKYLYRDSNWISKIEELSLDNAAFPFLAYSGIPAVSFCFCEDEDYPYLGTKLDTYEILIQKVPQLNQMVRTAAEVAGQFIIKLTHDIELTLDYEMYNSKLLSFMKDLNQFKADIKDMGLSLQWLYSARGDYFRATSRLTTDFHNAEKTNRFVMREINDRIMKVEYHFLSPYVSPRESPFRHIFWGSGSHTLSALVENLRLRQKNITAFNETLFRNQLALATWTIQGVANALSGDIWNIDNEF", "assay": "ELISA, plate-coated recombinant TfR-1, anti-hFc HRP detection", "procedure": "(§3) TfR-1 binding ELISA. Nunc MaxiSorp plates were coated with 100 μl of 1 μg/ml of in-house purified recombinant human, mouse, rat and cynomolgus TfR-1 and incubated at 4° C. overnight. Plates were incubated with blocking buffer (2.5% non-fat dry milk in PBST) for 1 h at RT. Serially-diluted TXP1 was mixed with non-fat dry milk in PBST to a final concentration of 2.5% and incubated for 30 min. Blocked TXP1 solutions (100 μl) were transferred to the blocked plates and incubated for 1 hr. Plates were washed with PBST and incubated with anti-hFc HRP-conjugated antibody diluted 1:5,000 (Sigma) in blocking buffer for 30 min. Plates were washed and developed with SureBlue™ TMB substrate, the reaction stopped with 1% HCl and absorbance measured at 450 nm."}, "[10]": {"biological_target": "T6, recombinant mouse TfR-1 (mouse, UniProt Q62351 89-763, limits assumed)", "T6 construct": "also called mTfR-1", "T6 sequence (Q62351 89-763 limits assumed)": "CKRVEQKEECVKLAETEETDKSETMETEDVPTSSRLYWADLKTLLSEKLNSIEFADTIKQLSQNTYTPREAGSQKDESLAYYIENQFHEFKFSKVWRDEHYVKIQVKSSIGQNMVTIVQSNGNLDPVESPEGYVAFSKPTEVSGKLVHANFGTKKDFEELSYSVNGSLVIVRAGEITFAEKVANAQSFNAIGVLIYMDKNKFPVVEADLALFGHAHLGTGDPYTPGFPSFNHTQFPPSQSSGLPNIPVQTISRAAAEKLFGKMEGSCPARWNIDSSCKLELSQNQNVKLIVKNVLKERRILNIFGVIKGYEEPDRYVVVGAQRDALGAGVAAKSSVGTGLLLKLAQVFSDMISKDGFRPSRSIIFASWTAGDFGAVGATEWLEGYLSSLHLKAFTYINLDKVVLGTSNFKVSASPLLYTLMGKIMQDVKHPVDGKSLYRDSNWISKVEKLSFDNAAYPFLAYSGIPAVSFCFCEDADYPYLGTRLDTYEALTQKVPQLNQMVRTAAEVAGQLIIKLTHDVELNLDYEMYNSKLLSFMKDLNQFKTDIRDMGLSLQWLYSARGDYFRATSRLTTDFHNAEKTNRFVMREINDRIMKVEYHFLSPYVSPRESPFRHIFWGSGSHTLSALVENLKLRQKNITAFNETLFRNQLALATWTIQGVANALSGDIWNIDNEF", "assay": "ELISA, plate-coated recombinant TfR-1, anti-hFc HRP detection", "procedure": "as §3"}, "[11]": {"biological_target": "T1, recombinant cynomolgus TfR-1", "assay": "ELISA, plate-coated recombinant TfR-1, anti-hFc HRP detection", "procedure": "as §3"}, "[12]": {"biological_target": "T2, recombinant human TfR-1", "assay": "ELISA, plate-coated recombinant TfR-1, anti-hFc HRP detection", "procedure": "as §3"}}}
{"binder": "TXP1 (Fc fusion, Bivalent VNAR-hFc; VNAR at the N-terminus of hFc IgG1; also called VNAR-hFc named TXP1; parental TXP1; not shown: human IgG1 Fc domain (hFc) with attenuated effector function mutations E233P/L234V/L235A/AG236 (deletion of G236)+A327G/) ARVDQTPQTITKETGESLTINCVLRDSNCALSSTYWYRKKSGSTNEENISKGGRYVETVNSGSKSFSLKINDLTVEDSGTYRCNVVGTWCMSWRDVYGGGTAVTVNA", "values": [{"measurement": "EC50", "setting": "[1]", "result": 1.4, "unit": "nM"}, {"measurement": "Kd", "setting": "[2]", "result": 5.1, "unit": "nM"}, {"measurement": "koff", "setting": "[2]", "result": 0.00027, "unit": "s⁻¹"}, {"measurement": "kon", "setting": "[2]", "result": 54000, "unit": "M⁻¹ s⁻¹"}, {"measurement": "Kd", "setting": "[3]", "result": 1.8, "unit": "nM"}, {"measurement": "koff", "setting": "[3]", "result": "9.6e-05", "unit": "s⁻¹"}, {"measurement": "kon", "setting": "[3]", "result": 53000, "unit": "M⁻¹ s⁻¹"}, {"measurement": "EC50", "setting": "[4]", "result": 2.2, "unit": "nM"}, {"measurement": "binding result", "setting": "[5]", "result": "no binding"}, {"measurement": "EC50", "setting": "[6]", "result": 1.9, "unit": "nM"}, {"measurement": "Kd", "setting": "[7]", "result": 3.14, "unit": "nM"}, {"measurement": "koff", "setting": "[7]", "result": 0.000365, "unit": "s⁻¹"}, {"measurement": "kon", "setting": "[7]", "result": 116000, "unit": "M⁻¹ s⁻¹"}, {"measurement": "Kd", "setting": "[8]", "result": 1.03, "unit": "nM"}, {"measurement": "koff", "setting": "[8]", "result": 0.000134, "unit": "s⁻¹"}, {"measurement": "kon", "setting": "[8]", "result": 129000, "unit": "M⁻¹ s⁻¹"}, {"measurement": "binding result", "setting": "[9]", "result": "no binding"}, {"measurement": "binding result", "setting": "[10]", "result": "no binding"}, {"measurement": "EC50", "setting": "[11]", "result": 1.6, "unit": "nM"}, {"measurement": "EC50", "setting": "[12]", "result": 1.5, "unit": "nM"}]}
